According to US20030229922A1, “Materials and methods for the modification of plant cell wall polysaccharides” (GENESIS RESEARCH AND DEVELOPMENT CORPORATION LTD., priority 1998, published 2003):

Columns and labels:
[1] = system: T1, O=c1ccn([C@@H]2O[C@H](COP(=O)(O)OP(=O)(O)O)[C@@H](O)[C@H]2O)c(=O)[nH]1; test: SUS (sucrose synthase) enzyme assay (purified recombinant protein); format: biochemical, Eucalyptus grandis; settings: other: E. grandis SUS; SEM 0.003
T1 construct: wild type
Source text: (§1) Sense constructs containing sequences including the coding regions for UGP (SEQ ID NO: 79) and SUS (SEQ ID NO: 105) from Eucalyptus grandis, and UGP (SEQ ID NO: 80) from Pinus radiata were inserted into the expression vector pET16b (Clontech Laboratories Inc, Palo Alto, Calif.). The resulting constructs were transformed into E. coli XL1-Blue (Stratagene) and induced to produce recombinant protein by the addition of IPTG. Purified proteins were obtained using Ni^2+ column chromatography (Janknecht et al., Proc. Natl. Acad. Sci. USA, 88:8972-8976, 1991).
(§2) Enzyme assays for SUS (sucrose synthase) were performed using the methods described by Sebkova et al. Plant Physiol., 108:75-83, 1995. […] The KM^Sucrose of E. grandis is compared with the data reported by Delmer, J. Biol. Chem. 247:3822-3828, 1972 and Nakai et al., Biosci. Biotech. Biochem. 61:1500-1503, 1997.

[2] = system: T2, OC[C@H]1O[C@@](CO)(O[C@H]2O[C@H](CO)[C@@H](O)[C@H](O)[C@H]2O)[C@@H](O)[C@@H]1O; test: as above; format: biochemical, Eucalyptus grandis; settings: other: E. grandis SUS; SEM 0.371
T2 construct: wild type
Source text: as §1, §2

Eucalyptus grandis SUS (sucrose synthase), SEQ ID NO: 105 (DNA; protein SEQ ID NO: 106) (Eucalyptus grandis), sequence (chain, as listed by the source): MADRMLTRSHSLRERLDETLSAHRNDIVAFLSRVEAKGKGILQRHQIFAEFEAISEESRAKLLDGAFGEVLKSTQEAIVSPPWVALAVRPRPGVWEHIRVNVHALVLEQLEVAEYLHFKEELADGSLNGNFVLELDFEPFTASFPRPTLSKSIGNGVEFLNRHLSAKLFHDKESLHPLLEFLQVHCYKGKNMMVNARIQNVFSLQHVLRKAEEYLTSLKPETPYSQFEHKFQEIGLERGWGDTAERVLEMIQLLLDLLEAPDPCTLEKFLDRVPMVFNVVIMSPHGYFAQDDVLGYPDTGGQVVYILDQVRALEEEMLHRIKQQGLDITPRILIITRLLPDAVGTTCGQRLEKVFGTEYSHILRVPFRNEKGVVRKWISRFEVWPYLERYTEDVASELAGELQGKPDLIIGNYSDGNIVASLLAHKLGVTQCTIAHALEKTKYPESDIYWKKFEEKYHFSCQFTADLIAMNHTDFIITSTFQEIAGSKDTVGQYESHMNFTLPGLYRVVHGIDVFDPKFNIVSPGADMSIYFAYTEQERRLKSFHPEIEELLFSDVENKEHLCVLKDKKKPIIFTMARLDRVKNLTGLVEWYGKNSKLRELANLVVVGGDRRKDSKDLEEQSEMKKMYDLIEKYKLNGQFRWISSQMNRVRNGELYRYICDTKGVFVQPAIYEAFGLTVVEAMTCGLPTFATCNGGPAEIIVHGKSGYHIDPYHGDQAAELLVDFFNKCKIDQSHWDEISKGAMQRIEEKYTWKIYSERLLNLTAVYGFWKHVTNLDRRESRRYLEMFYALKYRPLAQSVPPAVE

Which Km [1] does the source give for “Eucalyptus grandis SUS (sucrose synthase), SEQ ID NO: 105 (DNA; protein SEQ ID NO: 106) (Eucalyptus grandis)” here?
Its Km is 28 µM.

And the Km [2]?
Its Km is 1650 µM.
